Assay results published in paper PMC11825297.

Target: GST-tagged actin-binding domain of melanophilin (GST-Mlph-ABD), ATTO-488-labeled (UniProt Q91V27)
Assay: MST; ATTO-488-labeled GST-Mlph-ABD (diluted to 40 nM in MST buffer: 50 mM Tris-HCl pH 7.8, 100 mM NaCl, 10 mM MgCl2, 0.05% Tween-20) mixed 1:1 with a 16-step two-fold dilution series of the His-tagged Myo5a tail from 40 uM in His-tag protein dialysis buffer; Monolith NT.115; three repetitions

Sequence of UniProt Q91V27 (Q91V27 401-590): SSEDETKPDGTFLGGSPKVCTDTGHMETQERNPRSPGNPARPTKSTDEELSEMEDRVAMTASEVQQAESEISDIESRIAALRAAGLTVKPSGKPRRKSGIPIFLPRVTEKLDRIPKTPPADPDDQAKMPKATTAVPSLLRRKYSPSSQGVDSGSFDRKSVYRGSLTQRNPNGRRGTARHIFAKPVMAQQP

Substance “His-tagged middle tail domain of myosin-5a (His-Myo5a-MTD) (from UniProt Q99104 1-1853) (domain or fragment)” has a Kd of 562 nM.
